From patent US20250019427A1

T1: Human GDF15 Fc (human) (UniProt Q99988)
T1 sequence (chain, biotinylated (EZ-Link Sulfo-NHS-Biotinylation Kit) where printed as biotinylated): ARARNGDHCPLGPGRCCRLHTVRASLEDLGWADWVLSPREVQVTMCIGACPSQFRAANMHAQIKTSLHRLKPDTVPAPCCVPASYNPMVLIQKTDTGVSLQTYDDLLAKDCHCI


Experiments:
[1] = biological target: T1, Human GDF15 Fc (human); experiment: SPR Biacore, Fab monovalent
[2] = biological target: T1, Human GDF15 Fc (human); experiment: Octet BLI, Fab monovalent
[3] = biological target: T1, Human GDF15 Fc (human); experiment: Octet BLI, IgG on tip, avid

Row | Binder | Kd [1] | koff [1] | kon [1] | Kd [2] | Kd [3]
1 | Clone E Fab (Fab, V domains shown) VH: QVQLVQSGAEVKKPGASVKVSCKASGYTFTSYGINWVRQAPGQGLEWMGWITAYSGDTNYAQKLQGRVTMTTDTSTSTAYMELRSLRSDDTAVYYCARGPGQYADVDVWGQGTMVTVSS VL: DIQMTQSPSSVSASVGDRVTITCRASQGISSWLAWYQQKPGKAPKLLIYAASSLQSGVPSRFSGSGSGTDFTLTISSLQPEDFATYYCQQANSFPITFGGGTKVEIK | 0.0331 nM | 8.71e-05 s⁻¹ | 2.63e+06 M⁻¹ s⁻¹ | 0.921 nM | 
2 | Clone I IgG (antibody, V domains shown) VH: QVQLVQSGAEVKKPGASVKVSCKASGYTFTDEGINWVRQAPGQGLEWMGWITAYSGDTVYAQKLQGRVTMTTDTSTSTAYMELRSLRSDDTAVYYCARGPGQYADVDVWGQGTMVTVSS VL: DIQMTQSPSSVSASVGDRVTITCRASQGISSWLAWYQQKPGKAPKLLIYAASSLQSGVPSRFSGSGSGTDFTLTISSLQPEDFATYYCQQANSFPITFGGGTKVEIKR |  |  |  |  | 0.262 nM
3 | Clone I Fab (Fab, V domains shown) VH: QVQLVQSGAEVKKPGASVKVSCKASGYTFTDEGINWVRQAPGQGLEWMGWITAYSGDTVYAQKLQGRVTMTTDTSTSTAYMELRSLRSDDTAVYYCARGPGQYADVDVWGQGTMVTVSS VL: DIQMTQSPSSVSASVGDRVTITCRASQGISSWLAWYQQKPGKAPKLLIYAASSLQSGVPSRFSGSGSGTDFTLTISSLQPEDFATYYCQQANSFPITFGGGTKVEIK | 0.0672 nM | 0.000259 s⁻¹ | 3.85e+06 M⁻¹ s⁻¹ | 1.25 nM | 
4 | Clone J IgG (antibody, V domains shown) VH: QVQLVQSGAEVKKPGASVKVSCKASGYTFTSYGINWVRQAPGQGLEWMGWIDAYSGSTNYAQKLQGRVTMTTDTSTSTAYMELRSLRSDDTAVYYCARGPGQYADVDVWGQGTMVTVSS VL: DIQMTQSPSSVSASVGDRVTITCRASQGISSWLAWYQQKPGKAPKLLIYAASSLQSGVPSRFSGSGSGTDFTLTISSLQPEDFATYYCQQANSFPITFGGGTKVEIKR |  |  |  |  | 0.276 nM
5 | Clone J Fab (Fab, V domains shown) VH: QVQLVQSGAEVKKPGASVKVSCKASGYTFTSYGINWVRQAPGQGLEWMGWIDAYSGSTNYAQKLQGRVTMTTDTSTSTAYMELRSLRSDDTAVYYCARGPGQYADVDVWGQGTMVTVSS VL: DIQMTQSPSSVSASVGDRVTITCRASQGISSWLAWYQQKPGKAPKLLIYAASSLQSGVPSRFSGSGSGTDFTLTISSLQPEDFATYYCQQANSFPITFGGGTKVEIK | 0.0884 nM | 0.000404 s⁻¹ | 4.57e+06 M⁻¹ s⁻¹ | 1.28 nM | 
6 | Clone K IgG (antibody, V domains shown) VH: QVQLVQSGAEVKKPGASVKVSCKASGYTFTNEGISWVRQAPGQGLEWMGWISAYTADTFYAQKLQGRVTMTTDTSTSTAYMELRSLRSDDTAVYYCARTRHDTSGLRFDYWGQGTLVTVSS VL: DIQMTQSPSSVSASVGDRVTITCRASQGIDSWLAWYQQKPGKAPKLLIYAASSLQSGVPSRFSGSGSGTDFTLTISSLQPEDFATYYCQQVHSFPITFGGGTKVEIKR |  |  |  |  | 0.271 nM
7 | Clone K Fab (Fab, V domains shown) VH: QVQLVQSGAEVKKPGASVKVSCKASGYTFTNEGISWVRQAPGQGLEWMGWISAYTADTFYAQKLQGRVTMTTDTSTSTAYMELRSLRSDDTAVYYCARTRHDTSGLRFDYWGQGTLVTVSS VL: DIQMTQSPSSVSASVGDRVTITCRASQGIDSWLAWYQQKPGKAPKLLIYAASSLQSGVPSRFSGSGSGTDFTLTISSLQPEDFATYYCQQVHSFPITFGGGTKVEIK | 0.23 nM | 0.00112 s⁻¹ | 4.87e+06 M⁻¹ s⁻¹ | 2.11 nM | 
8 | Clone L IgG (antibody, V domains shown) VH: QVQLVQSGAEVKKPGASVKVSCKASGYTFASYDIIWVRQAPGQGLEWMGWISALSGDTVYAQKLQGRVTMTTDTSTSTAYMELRSLRSDDTAVYYCARTRHDTSGIRFDYWGQGTLVTVSS VL: DIQMTQSPSSVSASVGDRVTITCRASQGIDSWLAWYQQKPGKAPKLLIYAASSLQSGVPSRFSGSGSGTDFTLTISSLQPEDFATYYCQQVHSFPITFGGGTKVEIKR |  |  |  |  | 0.325 nM
9 | Clone L Fab (Fab, V domains shown) VH: QVQLVQSGAEVKKPGASVKVSCKASGYTFASYDIIWVRQAPGQGLEWMGWISALSGDTVYAQKLQGRVTMTTDTSTSTAYMELRSLRSDDTAVYYCARTRHDTSGIRFDYWGQGTLVTVSS VL: DIQMTQSPSSVSASVGDRVTITCRASQGIDSWLAWYQQKPGKAPKLLIYAASSLQSGVPSRFSGSGSGTDFTLTISSLQPEDFATYYCQQVHSFPITFGGGTKVEIK | 0.144 nM | 0.000576 s⁻¹ | 3.99e+06 M⁻¹ s⁻¹ | 1.58 nM | 
10 | Clone O IgG (antibody, V domains shown) VH: QVQLVQSGAEVKKPGATVKVSCKASGYTFDSLGMSWVRQAPGQGLEWMGYISTYSGDTVYAQKLQGRVTMTTDTSTSTAYMELRSLRSDDTAVYYCARESGQQVSALDPWGQGTLVTVSS VL: DIQMTQSPSSVSASVGDRVTITCRASQGISRWLAWYQQKPGKAPKLLIYAASSLQSGVPSRFSGSGSGTDFTLTISSLQPEDFATYYCQQGASFPLTFGGGTKVEIKR |  |  |  |  | 0.379 nM
11 | Clone O Fab (Fab, V domains shown) VH: QVQLVQSGAEVKKPGATVKVSCKASGYTFDSLGMSWVRQAPGQGLEWMGYISTYSGDTVYAQKLQGRVTMTTDTSTSTAYMELRSLRSDDTAVYYCARESGQQVSALDPWGQGTLVTVSS VL: DIQMTQSPSSVSASVGDRVTITCRASQGISRWLAWYQQKPGKAPKLLIYAASSLQSGVPSRFSGSGSGTDFTLTISSLQPEDFATYYCQQGASFPLTFGGGTKVEIK | 0.0341 nM | 7.11e-05 s⁻¹ | 2.08e+06 M⁻¹ s⁻¹ | 0.216 nM | 
12 | Clone P IgG (antibody, V domains shown) VH: QVQLVQSGAEVKKPGATVKVSCKASGYTFDSYGIHWVRQAPGQGLEWMGWITAYSGDTVYAQKLQGRVTMTTDTSTSTAYMELRSLRSDDTAVYYCARESGQTSSALGPWGQGTLVTVSS VL: DIQMTQSPSSVSASVGDRVTITCRASQGISRWLAWYQQKPGKAPKLLIYAASSLQSGVPSRFSGSGSGTDFTLTISSLQPEDFATYYCQQGASFPLTFGGGTKVEIKR |  |  |  |  | 0.274 nM
13 | Clone P Fab (Fab, V domains shown) VH: QVQLVQSGAEVKKPGATVKVSCKASGYTFDSYGIHWVRQAPGQGLEWMGWITAYSGDTVYAQKLQGRVTMTTDTSTSTAYMELRSLRSDDTAVYYCARESGQTSSALGPWGQGTLVTVSS VL: DIQMTQSPSSVSASVGDRVTITCRASQGISRWLAWYQQKPGKAPKLLIYAASSLQSGVPSRFSGSGSGTDFTLTISSLQPEDFATYYCQQGASFPLTFGGGTKVEIK | 0.126 nM | 0.0021 s⁻¹ | 1.66e+07 M⁻¹ s⁻¹ | 3.68 nM | 
14 | Clone S Fab (Fab, V domains shown) VH: QVQLVQSGAEVKKPGASVKVSCKASGYTFTSYGINWVRQAPGQGLEWMGWITAYSGDTNYAQKLQGRVTMTTDTSTSTAYMELRSLRSDDTAVYYCARGPGQYADVDVWGQGTMVTVSS VL: DIQLTQSPSSVSASVGDRVTITCRASQGISPWLAWYQQKPGKAPKLLIYAASSLQSGVPSRFSGSGSGTDFTLTISSLQPEDFATYYCQQANSFPITFGGGTKVEIK | 0.0369 nM | 4.93e-05 s⁻¹ | 1.34e+06 M⁻¹ s⁻¹ | 0.48 nM | 
15 | Clone T Fab (Fab, V domains shown) VH: QVQLVQSGAEVKKPGASVKVSCKASGYTFTSYGINWVRQAPGQGLEWMGWITAYSGDTNYAQKLQGRVTMTTDTSTSTAYMELRSLRSDDTAVYYCARGPGQYADVDVWGQGTMVTVSS VL: DIQMTQSPSSVSASVGDRVTITCRASQGISSWLAWYQQKPGKAPKLLIYAASSLQSGVPSRFSGSGSGTDFTLTISSLQPEDFATYYCQQASQFPITFGGGTKVEIK | 0.0411 nM | 4.52e-05 s⁻¹ | 1.1e+06 M⁻¹ s⁻¹ | 0.613 nM | 
16 | Clone E IgG (antibody, V domains shown) VH: QVQLVQSGAEVKKPGASVKVSCKASGYTFTSYGINWVRQAPGQGLEWMGWITAYSGDTNYAQKLQGRVTMTTDTSTSTAYMELRSLRSDDTAVYYCARGPGQYADVDVWGQGTMVTVSS VL: DIQMTQSPSSVSASVGDRVTITCRASQGISSWLAWYQQKPGKAPKLLIYAASSLQSGVPSRFSGSGSGTDFTLTISSLQPEDFATYYCQQANSFPITFGGGTKVEIKR |  |  |  |  | 0.278 nM
